Starred links: 1 amine or outer side, 2 acyl side, 3 side chain; linkers in the order of their positions; H or OH if unused. Non-standard residues stand in square brackets, D forms with d. Groups on a side chain read outwards from the residue. *: point of attachment. γGlu = O=C(O)[C@H](CCC(=O)[*:2])N[*:1]; Palmitoyl = CCCCCCCCCCCCCCCC(=O)*; NMeS = CN[C@@H](CO)C(=O)O; Ac4c = NC1(C(=O)O)CCC1; Aib = CC(C)(N)C(=O)O
T1: endogenous GLP-1 receptor of a murine insulinoma cell line (murine, UniProt O35659 22-463)
T1 sequence (looked up): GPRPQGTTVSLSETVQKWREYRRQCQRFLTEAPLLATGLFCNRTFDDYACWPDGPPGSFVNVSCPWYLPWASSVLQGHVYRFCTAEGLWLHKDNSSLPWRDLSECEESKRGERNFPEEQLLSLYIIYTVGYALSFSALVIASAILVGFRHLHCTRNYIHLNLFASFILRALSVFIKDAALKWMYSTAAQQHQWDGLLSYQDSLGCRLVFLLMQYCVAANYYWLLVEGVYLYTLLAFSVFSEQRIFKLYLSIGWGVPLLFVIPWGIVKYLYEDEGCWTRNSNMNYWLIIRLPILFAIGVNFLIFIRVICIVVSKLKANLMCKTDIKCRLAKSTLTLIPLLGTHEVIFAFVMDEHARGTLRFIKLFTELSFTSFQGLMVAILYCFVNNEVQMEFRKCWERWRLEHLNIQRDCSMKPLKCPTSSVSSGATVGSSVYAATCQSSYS


What was measured:
Test in all cases: cell-based or functional assay
[1] = target: human glucagon-like peptide 1 receptor (GLP-1R) (human, UniProt P43220 24-463)
[2] = target: human glucagon receptor (Glucagon-R) (human, UniProt P47871 26-477)
Chain of human glucagon receptor (Glucagon-R) (P47871 26-477): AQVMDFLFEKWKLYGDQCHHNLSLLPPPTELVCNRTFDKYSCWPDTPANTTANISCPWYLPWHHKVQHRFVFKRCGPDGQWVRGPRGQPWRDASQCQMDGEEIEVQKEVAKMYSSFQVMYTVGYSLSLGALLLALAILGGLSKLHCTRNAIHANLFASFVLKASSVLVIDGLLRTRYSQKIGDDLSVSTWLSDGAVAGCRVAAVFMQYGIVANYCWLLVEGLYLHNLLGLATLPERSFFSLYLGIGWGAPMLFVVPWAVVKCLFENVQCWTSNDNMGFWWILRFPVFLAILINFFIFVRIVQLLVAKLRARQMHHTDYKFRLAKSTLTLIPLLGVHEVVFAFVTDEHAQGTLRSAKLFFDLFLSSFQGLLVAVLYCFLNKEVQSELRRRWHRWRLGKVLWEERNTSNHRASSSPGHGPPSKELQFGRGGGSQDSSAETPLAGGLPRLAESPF

[3] = target: T1, endogenous GLP-1 receptor of a murine …
[4] = target: endogenous glucagon receptor of primary rat hepatocytes (rat, UniProt P30082 27-485)
Chain of endogenous glucagon receptor of primary rat hepatocytes (P30082 27-485): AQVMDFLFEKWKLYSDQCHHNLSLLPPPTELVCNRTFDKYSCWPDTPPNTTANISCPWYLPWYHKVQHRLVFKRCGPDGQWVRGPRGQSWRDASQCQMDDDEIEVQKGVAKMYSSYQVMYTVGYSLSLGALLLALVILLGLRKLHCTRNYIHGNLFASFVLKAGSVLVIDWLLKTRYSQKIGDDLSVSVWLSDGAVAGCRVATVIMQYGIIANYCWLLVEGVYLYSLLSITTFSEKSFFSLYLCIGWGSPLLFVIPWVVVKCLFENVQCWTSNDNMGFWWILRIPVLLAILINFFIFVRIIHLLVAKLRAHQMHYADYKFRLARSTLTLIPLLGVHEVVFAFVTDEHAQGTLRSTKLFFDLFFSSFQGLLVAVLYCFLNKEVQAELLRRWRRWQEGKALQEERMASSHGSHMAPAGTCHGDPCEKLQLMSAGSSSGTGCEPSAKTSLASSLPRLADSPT

EC50 hGLP-1R CHO-K1 [nM] (cAMP, AlphaScreen) [1] | EC50 hGCGR CHO-K1 [nM] (cAMP, AlphaScreen) [2] | EC50 [nM] (cAMP in murine insulinoma cell line) [3] | EC50 [nM] (inhibition of glycogen synthesis rate in primary rat hepatocytes) [4] | Binder
0.31 nM | 0.12 nM | 0.32 nM | 0.37 nM | H-H[Ac4c]QGTFTSDYSKYLDSK([γGlu-Palmitoyl])AAHDFVEWLLSA-NH2 (SMILES CCCCCCCCCCCCCCCC(=O)N[C@@H](CCC(=O)NCCCC[C@H](NC(=O)[C@H](CO)NC(=O)[C@H](CC(=O)O)NC(=O)[C@H](CC(C)C)NC(=O)[C@H](Cc1ccc(O)cc1)NC(=O)[C@H](CCCCN)NC(=O)[C@H](CO)NC(=O)[C@H](Cc1ccc(O)cc1)NC(=O)[C@H](CC(=O)O)NC(=O)[C@H](CO)NC(=O)[C@@H](NC(=O)[C@H](Cc1ccccc1)NC(=O)[C@@H](NC(=O)CNC(=O)[C@H](CCC(N)=O)NC(=O)C1(NC(=O)[C@@H](N)Cc2c[nH]cn2)CCC1)[C@@H](C)O)[C@@H](C)O)C(=O)N[C@@H](C)C(=O)N[C@@H](C)C(=O)N[C@@H](Cc1c[nH]cn1)C(=O)N[C@@H](CC(=O)O)C(=O)N[C@@H](Cc1ccccc1)C(=O)N[C@H](C(=O)N[C@@H](CCC(=O)O)C(=O)N[C@@H](Cc1c[nH]c2ccccc12)C(=O)N[C@@H](CC(C)C)C(=O)N[C@@H](CC(C)C)C(=O)N[C@@H](CO)C(=O)N[C@@H](C)C(N)=O)C(C)C)C(=O)O) [Compound 4: H-H-Ac4c-QGTFTSDYSKYLDS-K(Hexadecanoyl-isoGlu)-AAHDFVEWLLSA-NH2]
0.21 nM | 3.19 nM | 0.14 nM | 4 nM | H-HPQGTFTSDYSKYLDEK([γGlu-Palmitoyl])AAKDFIEWLESA-NH2 (SMILES CCCCCCCCCCCCCCCC(=O)N[C@@H](CCC(=O)NCCCC[C@H](NC(=O)[C@H](CCC(=O)O)NC(=O)[C@H](CC(=O)O)NC(=O)[C@H](CC(C)C)NC(=O)[C@H](Cc1ccc(O)cc1)NC(=O)[C@H](CCCCN)NC(=O)[C@H](CO)NC(=O)[C@H](Cc1ccc(O)cc1)NC(=O)[C@H](CC(=O)O)NC(=O)[C@H](CO)NC(=O)[C@@H](NC(=O)[C@H](Cc1ccccc1)NC(=O)[C@@H](NC(=O)CNC(=O)[C@H](CCC(N)=O)NC(=O)[C@@H]1CCCN1C(=O)[C@@H](N)Cc1c[nH]cn1)[C@@H](C)O)[C@@H](C)O)C(=O)N[C@@H](C)C(=O)N[C@@H](C)C(=O)N[C@@H](CCCCN)C(=O)N[C@@H](CC(=O)O)C(=O)N[C@@H](Cc1ccccc1)C(=O)N[C@H](C(=O)N[C@@H](CCC(=O)O)C(=O)N[C@@H](Cc1c[nH]c2ccccc12)C(=O)N[C@@H](CC(C)C)C(=O)N[C@@H](CCC(=O)O)C(=O)N[C@@H](CO)C(=O)N[C@@H](C)C(N)=O)[C@@H](C)CC)C(=O)O) [Compound 13: H-HPQGTFTSDYSKYLDE-K(Hexadecanoyl-isoGlu)-AAKDFIEWLESA-NH2]
0.27 nM | 0.08 nM | 0.21 nM | 2.26 nM | H-H[Aib]QGTFTSDYSKYLDEK([γGlu-Palmitoyl])AAKDFIEWLEEE-NH2 (SMILES CCCCCCCCCCCCCCCC(=O)N[C@@H](CCC(=O)NCCCC[C@H](NC(=O)[C@H](CCC(=O)O)NC(=O)[C@H](CC(=O)O)NC(=O)[C@H](CC(C)C)NC(=O)[C@H](Cc1ccc(O)cc1)NC(=O)[C@H](CCCCN)NC(=O)[C@H](CO)NC(=O)[C@H](Cc1ccc(O)cc1)NC(=O)[C@H](CC(=O)O)NC(=O)[C@H](CO)NC(=O)[C@@H](NC(=O)[C@H](Cc1ccccc1)NC(=O)[C@@H](NC(=O)CNC(=O)[C@H](CCC(N)=O)NC(=O)C(C)(C)NC(=O)[C@@H](N)Cc1c[nH]cn1)[C@@H](C)O)[C@@H](C)O)C(=O)N[C@@H](C)C(=O)N[C@@H](C)C(=O)N[C@@H](CCCCN)C(=O)N[C@@H](CC(=O)O)C(=O)N[C@@H](Cc1ccccc1)C(=O)N[C@H](C(=O)N[C@@H](CCC(=O)O)C(=O)N[C@@H](Cc1c[nH]c2ccccc12)C(=O)N[C@@H](CC(C)C)C(=O)N[C@@H](CCC(=O)O)C(=O)N[C@@H](CCC(=O)O)C(=O)N[C@@H](CCC(=O)O)C(N)=O)[C@@H](C)CC)C(=O)O) [Compound 17: H-H-Aib-QGTFTSDYSKYLDE-K(Hexadecanoyl-isoGlu)-AAKDFIEWLEEE-NH2]
0.92 nM | 0.24 nM | 0.52 nM | 5.4 nM | H-H[NMeS]QGTFTSDYSKYLDSK([γGlu-Palmitoyl])AAHDFVEWLLSA-NH2 (SMILES CCCCCCCCCCCCCCCC(=O)N[C@@H](CCC(=O)NCCCC[C@H](NC(=O)[C@H](CO)NC(=O)[C@H](CC(=O)O)NC(=O)[C@H](CC(C)C)NC(=O)[C@H](Cc1ccc(O)cc1)NC(=O)[C@H](CCCCN)NC(=O)[C@H](CO)NC(=O)[C@H](Cc1ccc(O)cc1)NC(=O)[C@H](CC(=O)O)NC(=O)[C@H](CO)NC(=O)[C@@H](NC(=O)[C@H](Cc1ccccc1)NC(=O)[C@@H](NC(=O)CNC(=O)[C@H](CCC(N)=O)NC(=O)[C@H](CO)N(C)C(=O)[C@@H](N)Cc1c[nH]cn1)[C@@H](C)O)[C@@H](C)O)C(=O)N[C@@H](C)C(=O)N[C@@H](C)C(=O)N[C@@H](Cc1c[nH]cn1)C(=O)N[C@@H](CC(=O)O)C(=O)N[C@@H](Cc1ccccc1)C(=O)N[C@H](C(=O)N[C@@H](CCC(=O)O)C(=O)N[C@@H](Cc1c[nH]c2ccccc12)C(=O)N[C@@H](CC(C)C)C(=O)N[C@@H](CC(C)C)C(=O)N[C@@H](CO)C(=O)N[C@@H](C)C(N)=O)C(C)C)C(=O)O) [Compound 2: H-H-NMeSer-QGTFTSDYSKYLDS-K(Hexadecanoyl-isoGlu)-AAHDFVEWLLSA-NH2]
0.68 nM | 18.3 nM | 0.13 nM | 0.06 nM | H-H[Ac4c]QGTFTSDYSKYLDEK([γGlu-Palmitoyl])AAKDFIEWLESA-NH2 (SMILES CCCCCCCCCCCCCCCC(=O)N[C@@H](CCC(=O)NCCCC[C@H](NC(=O)[C@H](CCC(=O)O)NC(=O)[C@H](CC(=O)O)NC(=O)[C@H](CC(C)C)NC(=O)[C@H](Cc1ccc(O)cc1)NC(=O)[C@H](CCCCN)NC(=O)[C@H](CO)NC(=O)[C@H](Cc1ccc(O)cc1)NC(=O)[C@H](CC(=O)O)NC(=O)[C@H](CO)NC(=O)[C@@H](NC(=O)[C@H](Cc1ccccc1)NC(=O)[C@@H](NC(=O)CNC(=O)[C@H](CCC(N)=O)NC(=O)C1(NC(=O)[C@@H](N)Cc2c[nH]cn2)CCC1)[C@@H](C)O)[C@@H](C)O)C(=O)N[C@@H](C)C(=O)N[C@@H](C)C(=O)N[C@@H](CCCCN)C(=O)N[C@@H](CC(=O)O)C(=O)N[C@@H](Cc1ccccc1)C(=O)N[C@H](C(=O)N[C@@H](CCC(=O)O)C(=O)N[C@@H](Cc1c[nH]c2ccccc12)C(=O)N[C@@H](CC(C)C)C(=O)N[C@@H](CCC(=O)O)C(=O)N[C@@H](CO)C(=O)N[C@@H](C)C(N)=O)[C@@H](C)CC)C(=O)O) [Compound 14: H-H-Ac4c-QGTFTSDYSKYLDE-K(Hexadecanoyl-isoGlu)-AAKDFIEWLESA-NH2]

From US9988429B2, “Glucagon analogues” (Zealand Pharma A/S, priority 2013, dated 2018)
